Measured values reported in patent publication US20070065875A1 (INNATE PHARMA S A, published 2007).

B1: FcεRIγ (other, human, UniProt P30273 19-86, looked up)
chain: LGEPQLCYILDAILFLYGIVLTLLYCRLKIQVRKAAITSYEKSDGVYTGLSTRNQETYETLKHEKPPQ
B2: KARAP/DAP12 (other, human, UniProt O43914 22-113, looked up)
chain: LRPVQAQAQSDCSCSTVSPGVLAGIVMGDLVLTVLIALAVYFLGRLVPRGRGAAEAATRKQRITETESPYQELQGQRSDVYSDLNTQRPYYK
B3: linker for activation of T cells (LAT) (other, human, UniProt O43561 1-262, looked up)
chain: MEEAILVPCVLGLLLLPILAMLMALCVHCHRLPGSYDSTSSDSLYPRGIQFKRPHTVAPWPPAYPPVTSYPPLSQPDLLPIPRSPQPLGGSHRTPSSRRDSDGANSVASYENEGASGIRGAQAGWGVWGPSWTRLTPVSLPPEPACEDADEDEDDYHNPGYLVVLPDSTPATSTAAPSAPALSTPGIRDSAFSMESIDDYVNVPESGESAEASLDGSREYVNVSQELHPGAAKTEPAALSSQEAEEVEEEGAPDYENLQELN

Legend:
[1] = biological target: T1, NTB-A (NK-T-B-antigen) (human, UniProt Q96DU3 22-332); assay: NTB-A immunoprecipitates from 1% digitonin NK cell lysates probed by western blot
T1 construct: Full-length surface glycoprotein; Native cells may also carry the allelic isoform with an extra Ala at position 266; also called KALI cDNA product; MA127-reactive molecule
T1 sequence: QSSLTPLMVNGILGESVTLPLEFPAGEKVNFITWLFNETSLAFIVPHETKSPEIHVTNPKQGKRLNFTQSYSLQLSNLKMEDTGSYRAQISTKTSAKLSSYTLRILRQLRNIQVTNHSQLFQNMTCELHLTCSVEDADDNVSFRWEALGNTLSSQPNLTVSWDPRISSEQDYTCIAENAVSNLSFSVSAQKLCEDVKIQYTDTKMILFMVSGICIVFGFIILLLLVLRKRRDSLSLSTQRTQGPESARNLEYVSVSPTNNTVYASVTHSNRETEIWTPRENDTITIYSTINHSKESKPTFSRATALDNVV
Method: (§1) NK cells (10⁸) were stimulated or not with 100 M sodium pervanadate (28). 1% NP-40 or 1% digitonin cell lysates were immunoprecipitated with Sepharose-PA (Amersham Pharmacia Biotech)-coupled mAbs. Samples were analyzed in discontinuous SDS-PAGE, transferred to Immobilon P (Millipore), and probed with: (a) anti-phosphotyrosine mAb (PY20-HRPO; Transduction Laboratories); (b) anti-SHP-2 or anti-SHP-1 mAbs (PTP1D and PTP1C, respectively; Transduction Laboratories) followed by rabbit anti-mouse-HRPO (Dako); (c) anti-SH2D1A rabbit anti-serum (produced by Eurogentec S.A; reference 28) followed by donkey anti-rabbit-HRPO (Amersham Pharmacia Biotech). The Renaissance Chemiluminescence Kit (NEN Life Science Products) was used for detection. Putative NTB-A association with known signal transducing molecules was analyzed by probing NTB-A immunoprecipitates, obtained from 1% digitonin cell lysates, with anti-FcRI (provided by E. Vivier, Marseille, France), anti-DAP12 (SI-28; reference 10), and anti-LAT (UBI; Upstate Biotechnology) antisera or with anti-CD3mAb (TIA/2; Immunotech).

[2] = biological target: T1, NTB-A (NK-T-B-antigen); assay: NTB-A immunoprecipitates from 1% digitonin NK cell lysates probed with anti-LAT antiserum
Method: as §1

Binder	binding result [1]	binding result [2]
B1	no binding	
B2	no binding	
B3		no binding
